Reference: publication PMC10063554
Each block holds one substance with its values, some of them ahead of it.

Columns and labels:
[1] = biological target: SNAP-tagged wild-type human PTH1R (human) (UniProt Q03431); assay: AlphaScreen or HTRF; binding of 40 nM M-PTH(1–14) to membrane fractions supplemented with increasing concentrations of mini-Gs; data relative to PTH1R without mini-Gs; EC50 of mini-Gs read through ligand occupancy, apparent
[2] = biological target: SNAP-tagged wild-type human PTH1R (human) (UniProt Q03431); assay: AlphaScreen or HTRF; crude membrane fractions (0.2–1 µg per well) of HEK293T cells with SNAP-Lumi4-Tb-labelled PTH1R, without mini-Gs; labeled M-PTH(1–14) tracer with unlabeled M-PTH(1–14); 4 h on ice

fold increase of fractional binding with increasing mini-Gs [1]: < 2 fold
Substance: M-PTH(1–14) labeled at K^13 with HiLyte dye 647 (peptide)

Substance: Mini-Gs 393
EC50 [1]: 1.39 µM

fold increase in affinity, membrane fractions against whole cells [2]: 5 fold
Substance: Human [Ac5c^1, Aib^3, Q^10, Har^11, A^12, W^14]PTH(1–14) (peptide)
